Results taken from doi:10.1101/2022.01.10.475532.

Key:
[1] = biological target: prefusion-stabilized S protein of SARS-CoV-2 Delta (B.1.617.2) variant (S trimer) (SARS-CoV-2); experiment: BLI
[2] = biological target: prefusion-stabilized S protein of SARS-CoV-2 G614 variant (S trimer) (SARS-CoV-2); experiment: BLI

Sequence of human ACE2 peptidase domain (PD) (Q9BYF1 18-615): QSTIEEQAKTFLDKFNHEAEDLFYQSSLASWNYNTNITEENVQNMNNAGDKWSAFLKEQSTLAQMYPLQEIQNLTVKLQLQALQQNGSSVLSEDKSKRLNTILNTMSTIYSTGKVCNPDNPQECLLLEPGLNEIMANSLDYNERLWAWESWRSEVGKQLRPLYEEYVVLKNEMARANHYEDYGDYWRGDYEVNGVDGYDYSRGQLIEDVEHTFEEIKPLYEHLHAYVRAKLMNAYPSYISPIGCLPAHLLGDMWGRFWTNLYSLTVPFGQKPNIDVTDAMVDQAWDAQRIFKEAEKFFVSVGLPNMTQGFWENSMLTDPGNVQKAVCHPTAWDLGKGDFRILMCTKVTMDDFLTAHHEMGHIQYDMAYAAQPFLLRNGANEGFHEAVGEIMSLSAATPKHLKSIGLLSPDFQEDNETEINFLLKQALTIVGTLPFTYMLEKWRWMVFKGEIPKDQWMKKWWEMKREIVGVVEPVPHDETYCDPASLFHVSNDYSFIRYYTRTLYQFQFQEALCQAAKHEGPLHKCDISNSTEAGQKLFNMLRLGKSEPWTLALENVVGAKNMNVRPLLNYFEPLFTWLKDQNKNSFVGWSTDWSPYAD

human ACE2 peptidase domain (PD) (from UniProt Q9BYF1 18-615) (domain or fragment)
Kd [1]: 88 nM | Kd [2]: 237 nM
